# Experimental data as given in patent US20110223168A1 (published 2011).
# T1: human p55 TNF receptor (human, UniProt P19438 30-211, limits assumed)
# T1 construct: Coupled to a CM5 chip or coated on immunotubes/plates; also called TNF receptor 1; TNFα receptor
# T1 sequence (looked up): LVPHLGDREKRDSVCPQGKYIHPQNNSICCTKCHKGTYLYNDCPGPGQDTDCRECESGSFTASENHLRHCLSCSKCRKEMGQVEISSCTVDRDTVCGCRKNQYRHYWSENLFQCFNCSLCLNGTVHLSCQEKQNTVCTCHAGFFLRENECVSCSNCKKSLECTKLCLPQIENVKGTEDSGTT
# B1: TAR2h-5 (other)
# VH: EVQLLESGGGLVQPGGSLRLSCAASGFTFDLYNMFWVRQAPGKGLEWVSFISQTGRLTWYADSVKGRFTISRDNSKNTLYLQMNSLRAEDTAVYYCAKTLEDFDYWGQGTLVTVSS
# notes: VH dAb against TNF receptor 1; also called TAR2-5; TAR2h-5 VH dAb
# B2: TAR1-5-19d4 (other)
# chain: DIQMTQSPSSLSASVGDRVTITCRASQSIDSYLHWYQQKPGKAPKLLIYSASELQSGVPSRFSGSGSGTDFTLTISSLQPEDFATYYCQQVVWRPFTFGQGTKVEIKRGGGGSGGGGSGGGGSGGGGSGGGGSDIQMTQSPSSLSASVGDRVTITCRASQSVKEFLWWYQQKPGKAPKLLIYMASNLQSGVPSRFSGSGSGTDFTLTISSLQPEDFATYYCQQKFKLPRTFGQGTKVEIKR
# notes: also called TAR1-5-19 dimer 4
# B3: HEL4 (other)
# VH: EVQLLESGGGLVQPGGSLRLSCAASGFRISDEDMGWVRQAPGKGLEWVSSIYGPSGSTYYADSVKGRFTISRDNSKNTLYLQMNSLRAEDTAVYYCASALEPLSEPLGFWGQGTLVTVSS
# notes: VH dAb; also called HEL4 VH dAb; anti-hen egg white lysozyme dAb
# B4: TAR1-5-19 monomer (other)
# VL: DIQMTQSPSSLSASVGDRVTITCRASQSIDSYLHWYQQKPGKAPKLLIYSASELQSGVPSRFSGSGSGTDFTLTISSLQPEDFATYYCQQVVWRPFTFGQGTKVEIKR
# notes: also called TAR1-5-19 dAb
# B5: dAb1 monomer (other)
# VL: DIQMTQSPSSLSASVGDRVTITCRASQSIYDALEWYQQKPGKAPKLLIYTASRLQSGVPSRFSGSGSGTDFTLTISSLQPEDFATYYCQQVMQRPVTFGQGTKVEIKR
# notes: Vκ dAb monomer; also called partner dAb in TAR1-5d1, d5, d6
# B6: TAR1-5-19CYS trimer (TMEA) (other)
# VL: DIQMTQSPSSLSASVGDRVTITCRASQSIDSYLHWYQQKPGKAPKLLIYSASELQSGVPSRFSGSGSGTDFTLTISSLQPEDFATYYCQQVVWRPFTFGQGTKVEIKRC
# modifications: C-terminal Cys coupled to TMEA (Tris[2-maleimidoethyl]amine)
# notes: also called TAR1-5-19 homotrimer; trimeric TAR1-5-19CYS
# B7: dAb3 monomer (other)
# VL: DIQMTQSPSSLSASVGDRVTITCRASQSVKEFLWWYQQKPGKAPKLLIYMASNLQSGVPSRFSGSGSGTDFTLTISSLQPEDFATYYCQQKFKLPRTFGQGTKVEIKR
# notes: Vκ dAb monomer; also called partner dAb in TAR1-5d4
# Assays:
# human p55 TNF receptor = target: T1, human p55 TNF receptor; experiment: selection from dAb libraries
# hen egg lysozyme (HEL) [1] = target: T2, hen egg lysozyme (HEL) (hen, UniProt P00698 19-147); experiment: ELISA on HEL coated at 3 mg/ml, detection with 9e10 (anti-myc) and anti mouse IgG-HRP
# T2 construct: also called hen egg white lysozyme
# T2 sequence (P00698 19-147): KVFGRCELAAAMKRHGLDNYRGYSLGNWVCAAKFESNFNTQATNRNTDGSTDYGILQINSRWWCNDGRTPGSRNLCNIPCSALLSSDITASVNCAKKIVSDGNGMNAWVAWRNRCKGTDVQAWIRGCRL
# human TNFα [2] = target: T3, human TNFα (human, UniProt P01375 77-233); experiment: TNF receptor assay: inhibition of TNF binding to TNFR1-Fc (ELISA)
# T3 construct: Coated on plates, coupled to a CM5 chip, or added in solution (10 ng/ml) in the TNF receptor assay; the assay paragraphs often print only 'TNF'; also called TNF alpha; TAR1
# T3 sequence (P01375 77-233 limits assumed): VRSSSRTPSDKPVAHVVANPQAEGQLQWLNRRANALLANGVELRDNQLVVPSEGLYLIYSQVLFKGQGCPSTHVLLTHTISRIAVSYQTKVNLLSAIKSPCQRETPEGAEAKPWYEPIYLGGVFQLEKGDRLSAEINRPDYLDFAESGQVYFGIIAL
# human TNFα [3] = target: T3, human TNFα; experiment: TNF receptor assay; fermenter-expressed, cation exchange FPLC pure dimer
# hen egg lysozyme (HEL) [4] = target: T2, hen egg lysozyme (HEL); experiment: selection from dAb libraries
# human TNFα [5] = target: T3, human TNFα; experiment: TNF receptor assay: inhibition of TNF binding to TNFR1-Fc (ELISA); remark: listed apart in the source
# human TNFα [6] = target: T3, human TNFα; experiment: not stated; printed under 'Equilibrium dissocation constant (Kd = Koff/Kon)' in the data summary
# human TNFα [7] = target: T3, human TNFα; experiment: antigen ELISA
# Protocol: (§1) Binding activity of dimeric recombinant proteins was compared to monomer by Protein A/L ELISA or by antigen ELISA. Briefly, a 96 well plate is coated with antigen or Protein A/L overnight at 4° C. The plate washed with 0.05% Tween-PBS, blocked for 2 hrs with 2% Tween-PBS. The sample is added to the plate incubated for 1 hr at room temperature. The plate is washed and incubated with the secondary reagent for 1 hr at room temperature. The plate is washed and developed with TMB substrate. Protein A/L-HRP or India-HRP was used as a secondary reagent.
# [8] = target: bovine serum albumin (BSA) (bovine, UniProt P02769 25-607); experiment: antigen ELISA
# Sequence of bovine serum albumin (BSA) (P02769 25-607 limits assumed): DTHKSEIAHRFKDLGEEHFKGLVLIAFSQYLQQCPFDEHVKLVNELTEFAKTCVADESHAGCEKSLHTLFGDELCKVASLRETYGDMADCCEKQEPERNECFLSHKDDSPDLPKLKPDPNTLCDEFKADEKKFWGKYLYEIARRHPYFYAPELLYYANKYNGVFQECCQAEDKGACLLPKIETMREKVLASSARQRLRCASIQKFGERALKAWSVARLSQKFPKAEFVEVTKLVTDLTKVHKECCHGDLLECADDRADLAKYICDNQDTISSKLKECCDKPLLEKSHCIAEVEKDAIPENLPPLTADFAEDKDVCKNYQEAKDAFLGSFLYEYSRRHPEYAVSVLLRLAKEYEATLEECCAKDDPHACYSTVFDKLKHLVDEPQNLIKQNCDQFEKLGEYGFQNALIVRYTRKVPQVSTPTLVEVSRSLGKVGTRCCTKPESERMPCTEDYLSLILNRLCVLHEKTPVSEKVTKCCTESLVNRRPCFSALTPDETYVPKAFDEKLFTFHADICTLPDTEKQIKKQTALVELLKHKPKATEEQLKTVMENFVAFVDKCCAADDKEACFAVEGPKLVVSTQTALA
# Protocol: as §1
# human TNFα [9] = target: T3, human TNFα; experiment: TNF receptor assay: inhibition of TNF binding to TNFR1-Fc (ELISA); remark: listed apart in the source
binder,measurement,setting,value
B1,binding result,human p55 TNF receptor,binds
same,ELISA signal (background),hen egg lysozyme (HEL) [1],0.069
B2,IC50,human TNFα [2],2 to 5 nM
same,IC50,human TNFα [3],8 nM
B3,binding result,hen egg lysozyme (HEL) [4],binds
B4,IC50,human TNFα [5],30 nM
same,Kd,human TNFα [6],30 nM
B5,binding result,human TNFα [7],binds
same,binding result,[8],no binding
B6,IC50,human TNFα [9],0.3 nM
B7,binding result,[8],no binding
